Measured values published in the supplement of paper PMC5998384.

Assays:
HeLa Kyoto [1] = assay: solubility in G1/S (NP-40 vs SDS abundance) (log2 ratio); higher = more soluble; conditions: cell cycle stage: G1/S
HeLa Kyoto [2] = assay: melting temperature (median over replicates), in situ; higher = more thermally stable
HeLa Kyoto [3] = assay: solubility change mitosis vs G1/S (difference of NP-40 vs SDS log2 ratios) (log2 ratio difference); higher = more soluble in mitosis
HeLa Kyoto [4] = assay: thermal stability score vs G1/S (z-score of summed log2 fold changes over temperatures); higher = more thermally stable than in G1/S
[5] = cell cycle stage: early G1 (4.5 h after nocodazole release)
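Throughout, for melting temperature (median over replicates), in situ: HeLa Kyoto cells synchronized by double thymidine or nocodazole block, proteins quantified by TMT10plex mass spectrometry, three independent biological replicates.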
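Throughout, for solubility change mitosis vs G1/S (difference of NP-40 vs SDS log2 ratios): synchronized HeLa Kyoto cells (double thymidine block for G1/S, nocodazole release for mitosis), protein amounts in NP-40 versus SDS lysates quantified by mass spectrometry, three biological replicates.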
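Throughout, for solubility in G1/S (NP-40 vs SDS abundance): HeLa Kyoto cells arrested at G1/S by double thymidine block, proteins quantified by TMT10plex mass spectrometry in mild NP-40 versus SDS extracts, three biological replicates.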
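Throughout, for thermal stability score vs G1/S (z-score of summed log2 fold changes over temperatures): synchronized HeLa Kyoto cells, proteins quantified by TMT10plex mass spectrometry, three biological replicates, mitosis taken 0.5 h after nocodazole release, G1/S directly after double thymidine block.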

Sequence | solubility in G1/S (log2) (HeLa Kyoto [1]) | melting temperature (HeLa Kyoto [2]; cell cycle stage: G1/S) [°C] | melting temperature (HeLa Kyoto [2]; cell cycle stage: mitosis) [°C] | solubility change mitosis (log2) (HeLa Kyoto [3]) | thermal stability score (HeLa Kyoto [4]; [5]) | thermal stability score (HeLa Kyoto [4]; cell cycle stage: mitosis)
MDLGPLNICEEMTILHGGFLLAEQLFHPKALAELTKSDWERVGRPIVEALREISSAAAHSQPFAWKKKALIIIWAKVLQPHPVTPSDTETRWQEDLFFSVGNMIPTINHTILFELLKSLEASGLFIQLLMALPTTICHAELERFLEHVTVDTSAEDVAFFLDVWWEVMKHKGHPQDPLLSQFSAMAHKYLPALDEFPHPPKRLRSDPDACPTMPLLAMLLRGLTQIQSRILGPGRKCCALANLADMLTVFALTEDDPQEVSATVYLDKLATVISVWNSDTQNPYHQQALAEKVKEAERDVSLTSLAKLPSETIFVGCEFLHHLLREWGEELQAVLRSSQGTSYDSYRLCDSLTSFSQNATLYLNRTSLSKEDRQVVSELAECVRDFLRKTSTVLKNRALEDITASIAMAVIQQKMDRHMEVCYIFASEKKWAFSDEWVACLGSNRALFRQPDLVLRLLETVIDVSTADRAIPESQIRQVIHLILECYADLSLPGKNKVLAGILRSWGRKGLSEKLLAYVEGFQEDLNTTFNQLTQSASEQGLAKAVASVARLVIVHPEVTVKKMCSLAVVNLGTHKFLAQILTAFPALRFVEEQGPNSSATFMVSCLKETVWMKFSTPKEEKQFLELLNCLMSPVKPQGIPVAALLEPDEVLKEFVLPFLRLDVEEVDLSLRIFIQTLEANACREEYWLQTCSPFPLLFSLCQLLDRFSKYWQLPKEKRCLSLDRKDLAIHILELLCEIVSANAETFSPDVWIKSLSWLHRKLEQLDWTVGLRLKSFFEGHFKCEVPATLFEICKLSEDEWTSQAHPGYGAGTGLLAWMECCCVSSGISERMLSLLVVDVGNPEEVRLFSKGFLVALVQVMPWCSPQEWQRLHQLTRRLLEKQLLHVPYSLEYIQFVPLLNLKPFAQELQLSVLFLRTFQFLCSHSCRDWLPLEGWNHVVKLLCGSLTRLLDSVRAIQAAGPWVQGPEQDLTQEALFVYTQVFCHALHIMAMLHPEVCEPLYVLALETLTCYETLSKTNPSVSSLLQRAHEQRFLKSIAEGIGPEERRQTLLQKMSSF [GEMIN4] | -0.428 | 47 | 49.3 | -0.14 | 0.771 | 3.29
MDLSGVKKKSLLGVKENNKKSSTRAPSPTKRKDRSDEKSKDRSKDKGATKESSEKDRGRDKTRKRRSASSGSSSTRSRSSSTSSSGSSTSTGSSSGSSSSSASSRSGSSSTSRSSSSSSSSGSPSPSRRRHDNRRRSRSKSKPPKRDEKERKRRSPSPKPTKVHIGRLTRNVTKDHIMEIFSTYGKIKMIDMPVERMHPHLSKGYAYVEFENPDEAEKALKHMDGGQIDGQEITATAVLAPWPRPPPRRFSPPRRMLPPPPMWRRSPPRMRRRSRSPRRRSPVRRRSRSPGRRRHRSRSSSNSSR [RNPS1] | -0.501 | 48.9 | 50 | 0.52 | 0.608 | 1.88
MDNLSDTLKKLKITAVDKTEDSLEGCLDCLLQALAQNNTETSEKIQASGILQLFASLLTPQSSCKAKVANIIAEVAKNEFMRIPCVDAGLISPLVQLLNSKDQEVLLQTGRALGNICYDSHEGRSAVDQAGGAQIVIDHLRSLCSITDPANEKLLTVFCGMLMNYSNENDSLQAQLINMGVIPTLVKLLGIHCQNAALTEMCLVAFGNLAELESSKEQFASTNIAEELVKLFKKQIEHDKREMIFEVLAPLAENDAIKLQLVEAGLVECLLEIVQQKVDSDKEDDITELKTGSDLMVLLLLGDESMQKLFEGGKGSVFQRVLSWIPSNNHQLQLAGALAIANFARNDANCIHMVDNGIVEKLMDLLDRHVEDGNVTVQHAALSALRNLAIPVINKAKMLSAGVTEAVLKFLKSEMPPVQFKLLGTLRMLIDAQAEAAEQLGKNVKLVERLVEWCEAKDHAGVMGESNRLLSALIRHSKSKDVIKTIVQSGGIKHLVTMATSEHVIMQNEALVALALIAALELGTAEKDLESAKLVQILHRLLADERSAPEIKYNSMVLICALMGSECLHKEVQDLAFLDVVSKLRSHENKSVAQQASLTEQRLTVES [RAP1GDS1] | 0.111 | 50.2 | 49.8 | -0.0374 | 1.29 | 1.87
MDNYADLSDTELTTLLRRYNIPHGPVVGSTRRLYEKKIFEYETQRRRLSPPSSSAASSYSFSDLNSTRGDADMYDLPKKEDALLYQSKGYNDDYYEESYFTTRTYGEPESAGPSRAVRQSVTSFPDADAFHHQVHDDDLLSSSEEECKDRERPMYGRDSAYQSITHYRPVSASRSSLDLSYYPTSSSTSFMSSSSSSSSWLTRRAIRPENRAPGAGLGQDRQVPLWGQLLLFLVFVIVLFFIYHFMQAEEGNPF [EMD] | -0.273 | 52.4 | 51.7 | 0.383 | -0.609 | -0.468
